According to US20120021972A1 (CADILA HEALTHCARE, published 2012):
Starred links: 1 amine or outer side, 2 acyl side, 3 side chain; linkers in the order of their positions; H or OH if unused. Non-standard residues stand in square brackets, D forms with d. No end group written: not given here. *: point of attachment. NMe2F‑APPA = N-methyl-2-amino-5-(2-fluorophenyl)pentanoic acid, CN([C@@H](CCCc1ccccc1F)C(=O)[*:2])[*:1]; AMCB = 2-amino-5-(4-chloro-2-methylphenyl)pentanoic acid, Cc1cc(Cl)ccc1CCC[C@H](N[*:1])C(=O)[*:2]; 2CF3,4F‑APPA = 2-amino-5-(4-fluoro-2-(trifluoromethyl)phenyl)pentanoic acid; 2F,4CF3‑APPA = 2-amino-5-(2-fluoro-4-(trifluoromethyl)phenyl)pentanoic acid; Bip(2'-Et-4'-OMe) = CCc1cc(OC)ccc1-c1ccc(C[C@H](N)C(=O)O)cc1; Leu(5,5,5,5',5',5'-F6) = N[C@@H](CC(C(F)(F)F)C(F)(F)F)C(=O)O; 2Cl‑APPA = 2-amino-5-(2-chlorophenyl)pentanoic acid; 2F‑APPA = 2-amino-5-(2-fluorophenyl)pentanoic acid; αMePhe(2-F) = C[C@](N)(Cc1ccccc1F)C(=O)O; NMeBip(OMe) = N-methylated Bip(OMe); hhPhe = N[C@@H](CCCc1ccccc1)C(=O)O; NMeD = CN[C@@H](CC(=O)O)C(=O)O; aThr = C[C@H](O)[C@H](N)C(=O)O; NMeAPPA = not defined here; CNB = not defined here; Aib = CC(C)(N)C(=O)O; Moc = COC(=O)*

What was measured:
human glucagon receptor = human glucagon receptor (human, UniProt P47871 26-477); test: cell-based or functional assay
human GLP-1 receptor = human GLP-1 receptor (human, UniProt P43220 24-463); test: cell-based or functional assay
human GLP-1 receptor, sequence (P43220 24-463): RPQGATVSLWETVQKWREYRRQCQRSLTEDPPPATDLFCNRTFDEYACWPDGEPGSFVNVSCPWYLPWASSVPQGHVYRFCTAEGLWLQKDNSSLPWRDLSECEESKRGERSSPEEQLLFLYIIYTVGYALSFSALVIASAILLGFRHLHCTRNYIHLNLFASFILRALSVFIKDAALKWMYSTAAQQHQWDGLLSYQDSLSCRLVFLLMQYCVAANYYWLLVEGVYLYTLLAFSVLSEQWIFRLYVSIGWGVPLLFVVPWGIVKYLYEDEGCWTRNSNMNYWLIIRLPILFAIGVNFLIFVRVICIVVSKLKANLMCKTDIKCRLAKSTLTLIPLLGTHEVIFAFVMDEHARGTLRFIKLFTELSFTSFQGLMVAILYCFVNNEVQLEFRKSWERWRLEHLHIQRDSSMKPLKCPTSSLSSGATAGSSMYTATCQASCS

Row | Binder | inhibition of cAMP production, 1 nM (human glucagon receptor) [pmol/ml/µg prt] | inhibition of cAMP production, 10 nM (human glucagon receptor) [pmol/ml/µg prt] | inhibition of cAMP production, 100 nM (human glucagon receptor) [pmol/ml/µg prt] | inhibition of cAMP production, 1 µM (human glucagon receptor) [pmol/ml/µg prt] | inhibition of cAMP production, 10 µM (human glucagon receptor) [pmol/ml/µg prt] | cAMP release, % activity, 1 nM (human GLP-1 receptor) [%] | cAMP release, % activity, 10 nM (human GLP-1 receptor) [%] | cAMP release, % activity, 100 nM (human GLP-1 receptor) [%] | cAMP release, % activity, 1 µM (human GLP-1 receptor) [%] | cAMP release, % activity, 10 µM (human GLP-1 receptor) [%]
1 | H[Aib][CNB]G[aThr][αMePhe(2-F)][aThr]SD[Bip(2'-Et-4'-OMe)][2F‑APPA] (reading uncertain; also: reduced (CH2) bond between 10 and 11) [Seq. ID. No. 192: H-Aib-(CNB)-G-T(allo)-(α-Me-2F-Phe)-T(allo)-SD-Bip(OMe)-(CH2)-(2F-APPA)] | 4 | 2 | 0 | 0 | 0 |  |  |  |  | 
2 | Ac-H[Aib][Leu(5,5,5,5',5',5'-F6)]GT[αMePhe(2-F)]TSD[Bip(2'-Et-4'-OMe)][hhPhe] [Seq. ID. No. 210: CH3CO-H-Aib-(Hfl)-GT-(α-Me-2F-Phe)-TSD-Bip(OMe)-(APPA)] |  |  |  |  |  | 46 | 85 | 90 | 99 | 99
3 | Moc-H[Aib][CNB]GT[αMePhe(2-F)]TSD[Bip(2'-Et-4'-OMe)][2F‑APPA] (reading uncertain) [Seq. ID. No. 208: CH3OCO-H-Aib-(CNB)-GT-(α-Me-2F-Phe)-TSD-Bip(OMe)-(2F-APPA)] | 5 | 3 | 1 | 0 | 0 |  |  |  |  | 
4 | H[Aib][Leu(5,5,5,5',5',5'-F6)]G[aThr][αMePhe(2-F)][aThr]S[NMeD][NMeBip(OMe)][NMeAPPA] (reading uncertain) [Seq. ID. No. 220: H-Aib-(Hfl)-G-T(allo)-(α-Me-2F-Phe)-T(allo)-S-(NMe)D-((NMe)Bip(OMe))-((NMe)(APPA))] |  |  |  |  |  | 93 | 99 | 99 | 99 | 99
5 | H[Aib][CNB]GTFTSD[Bip(2'-Et-4'-OMe)][2CF3,4F‑APPA] (reading uncertain) [Seq. ID. No. 80: H-Aib-(CNB)-GTFTSD-Bip(OMe)-(2CF3, 4F-APPA)] |  |  |  |  |  | 66 | 97 | 99 | 99 | 99
6 | H[Aib]QG[aThr][αMePhe(2-F)][aThr]SD[Bip(2'-Et-4'-OMe)][2F‑APPA] (also: reduced (CH2) bonds Z9-Z10 and Z10-Z11) [Seq. ID. No. 203: H-Aib-QG-T(allo)-(α-Me-2F-Phe)-T(allo)-SD-(CH2)-Bip(OMe)-(CH2)-(2F-APPA)] |  |  |  |  |  | 86 | 99 | 99 | 99 | 99
7 | Ac-H[Aib]QG[aThr][αMePhe(2-F)][aThr]SD[Bip(2'-Et-4'-OMe)][hhPhe] (also: reduced (CH2) bond between 10 and 11) [Seq. ID. No. 185: CH3CO-H-Aib-QG-T(allo)-(α-Me-2F-Phe)-T(allo)-SD-Bip(OMe)-(CH2)-(APPA)] |  |  |  |  |  | 46 | 85 | 90 | 99 | 99
8 | Ac-H[Aib]QG[aThr][αMePhe(2-F)][aThr]SD[Bip(2'-Et-4'-OMe)][2F‑APPA] (also: reduced (CH2) bonds between 9-10 and 10-11) [Seq. ID. No. 199: CH3CO-H-Aib-QG-T(allo)-(α-Me-2F-Phe)-T(allo)-SD-(CH2)-Bip(OMe)-(CH2)-(2F-APPA)] | 4 | 3 | 0 | 0 | 0 |  |  |  |  | 
9 | Moc-H[Aib]QGT[αMePhe(2-F)]TSD[Bip(2'-Et-4'-OMe)][2F‑APPA] (also: reduced (CH2) bonds between 9-10 and 10-11) [Seq. ID. No. 196: CH3OCO-H-Aib-QGT-(α-Me-2F-Phe)-TSD-(CH2)-BiP(OMe)-(CH2)-(2F-APPA)] |  |  |  |  |  | 39 | 81 | 89 | 96 | 99
10 | Ac-H[Aib]QG[aThr][αMePhe(2-F)][aThr]SD[Bip(2'-Et-4'-OMe)][hhPhe] (also: reduced (CH2) bonds between 9-10 and 10-11) [Seq. ID. No. 197: CH3CO-H-Aib-QG-T(allo)-(α-Me-2F-Phe)-T(allo)-SD-(CH2)-Bip(OMe)-(CH2)-(APPA)] | 14 | 11 | 7 | 3 | 0 |  |  |  |  | 
11 | H[Aib][Leu(5,5,5,5',5',5'-F6)]GT[αMePhe(2-F)][aThr]SD[Bip(2'-Et-4'-OMe)][hhPhe] [Seq. ID. No. 225: H-Aib-(Hfl)-GT-(α-Me-2F-Phe)-T(allo)-SD-Bip(OMe)-(APPA)] | 5 | 2 | 0 | 0 | 0 |  |  |  |  | 
12 | H[Aib][CNB]GTFTSD[Bip(2'-Et-4'-OMe)][2F,4CF3‑APPA] (reading uncertain) [Seq. ID. No. 81: H-Aib-(CNB)-GTFTSD-Bip(OMe)-(2F, 4CF3-APPA)] |  |  |  |  |  | 69 | 98 | 99 | 99 | 99
13 | H[Aib][Leu(5,5,5,5',5',5'-F6)]G[aThr][αMePhe(2-F)][aThr]SD[Bip(2'-Et-4'-OMe)][2F‑APPA] (also: thioamide (C═S) bonds Z9-Z10 and Z10-Z11) [Seq. ID. No. 216: H-Aib-(Hfl)-G-T(allo)-(α-Me-2F-Phe)-T(allo)-SD-(C═S)-Bip(OMe)-(C═S)-(2F-APPA)] |  |  |  |  |  | 93 | 99 | 99 | 99 | 99

Second part, the binder after the results:

Row | inhibition of cAMP production, 1 nM (human glucagon receptor) [pmol/ml/µg prt] | inhibition of cAMP production, 10 nM (human glucagon receptor) [pmol/ml/µg prt] | inhibition of cAMP production, 100 nM (human glucagon receptor) [pmol/ml/µg prt] | inhibition of cAMP production, 1 µM (human glucagon receptor) [pmol/ml/µg prt] | inhibition of cAMP production, 10 µM (human glucagon receptor) [pmol/ml/µg prt] | cAMP release, % activity, 1 nM (human GLP-1 receptor) [%] | cAMP release, % activity, 10 nM (human GLP-1 receptor) [%] | cAMP release, % activity, 100 nM (human GLP-1 receptor) [%] | cAMP release, % activity, 1 µM (human GLP-1 receptor) [%] | cAMP release, % activity, 10 µM (human GLP-1 receptor) [%] | Binder
14 |  |  |  |  |  | 78 | 99 | 99 | 99 | 99 | H[Aib][CNB]GTFTSD[Bip(2'-Et-4'-OMe)][2Cl‑APPA] (reading uncertain) [Seq. ID. No. 82: H-Aib-(CNB)-GTFTSD-Bip(OMe)-(2Cl-APPA)]
15 | 9 | 6 | 5 | 3 | 0 |  |  |  |  |  | H[Aib][Leu(5,5,5,5',5',5'-F6)]G[aThr][αMePhe(2-F)][aThr]SD[Bip(2'-Et-4'-OMe)][2F‑APPA] (also: thioamide (C═S) bond Z10-Z11) [Seq. ID. No. 218: H-Aib-(Hfl)-G-T(allo)-(α-Me-2F-Phe)-T(allo)-SD-Bip(OMe)-(C═S)-(2F-APPA)]
16 |  |  |  |  |  | 82 | 87 | 92 | 99 | 99 | Moc-H[Aib]QG[aThr][αMePhe(2-F)][aThr]SD[Bip(2'-Et-4'-OMe)][hhPhe] (also: reduced (CH2) bonds between 9-10 and 10-11) [Seq. ID. No. 198: CH3OCO-H-Aib-QG-T(allo)-(α-Me-2F-Phe)-T(allo)-SD-(CH2)-Bip(OMe)-(CH2)-(APPA)]
17 | 15 | 12 | 8 | 4 | 2 |  |  |  |  |  | Ac-H[Aib]QGT[αMePhe(2-F)]TSD[Bip(2'-Et-4'-OMe)][2F‑APPA] (also: reduced (CH2) bonds between 9-10 and 10-11) [Seq. ID. No. 195: CH3CO-H-Aib-QGT-(α-Me-2F-Phe)-TSD-(CH2)-Bip(OMe)-(CH2)-(2F-APPA)]
18 |  |  |  |  |  | 99 | 99 | 99 | 99 | 99 | HAQGTFTSD[Bip(2'-Et-4'-OMe)][AMCB] [Seq. ID. No. 16: HAQGTFTSD-Bip(OMe)-(AMCB)]
19 |  |  |  |  |  | 41 | 82 | 87 | 95 | 98 | H[Aib][CNB]G[aThr][αMePhe(2-F)][aThr]SD[Bip(2'-Et-4'-OMe)][hhPhe] (reading uncertain; also: reduced (CH2) bond between 10 and 11) [Seq. ID. No. 190: H-Aib-(CNB)-G-T(allo)-(α-Me-2F-Phe)-T(allo)-SD-Bip(OMe)-(CH2)-(APPA)]
20 |  |  |  |  |  | 40 | 81 | 89 | 96 | 99 | H[Aib][CNB]G[aThr][αMePhe(2-F)][aThr]SD[Bip(2'-Et-4'-OMe)][2F‑APPA] (reading uncertain; also: thioamide bonds between residues 9-10 and 10-11) [Seq. ID. No. 180: H-Aib-(CNB)-G-T(allo)-(α-Me-2F-Phe)-T(allo)-SD-(C═S)-Bip(OMe)-(C═S)-(2F-APPA)]
21 |  |  |  |  |  | 99 | 99 | 99 | 99 | 99 | H[Aib][Leu(5,5,5,5',5',5'-F6)]GT[αMePhe(2-F)][aThr]SD[Bip(2'-Et-4'-OMe)][2F‑APPA] [Seq. ID. No. 224: H-Aib-(Hfl)-GT-(α-Me-2F-Phe)-T(allo)-SD-Bip(OMe)-(2F-APPA)]
22 | 10 | 8 | 6 | 4 | 1 |  |  |  |  |  | Ac-H[Aib][Leu(5,5,5,5',5',5'-F6)]GT[αMePhe(2-F)]TSD[Bip(2'-Et-4'-OMe)][2F‑APPA] [Seq. ID. No. 212: CH3CO-H-Aib-(Hfl)-GT-(α-Me-2F-Phe)-TSD-Bip(OMe)-(2F-APPA)]
23 |  |  |  |  |  | 51 | 86 | 91 | 99 | 99 | Moc-H[Aib]QG[aThr][αMePhe(2-F)][aThr]SD[NMeBip(OMe)][NMe2F‑APPA] [Seq. ID. No. 140: CH3OCO-H-Aib-QG-T(allo)-(α-Me-2F-Phe)-T(allo)-SD-((NMe)Bip(OMe))-((NMe)(2F-APPA))]
24 |  |  |  |  |  | 41 | 82 | 87 | 95 | 98 | Ac-H[Aib]QG[aThr][αMePhe(2-F)][aThr]SD[Bip(2'-Et-4'-OMe)][hhPhe] [Seq. ID. No. 101: CH3CO-H-Aib-QG-T(allo)-(α-Me-2F-Phe)-T(allo)-SD-Bip(OMe)-(APPA)]
